# Laboratory results from the supplement of paper PMC9112550, “Optimization of the antimicrobial peptide Bac7 by deep mutational scanning” (BMC Biology, 2022).
# Tested on: Escherichia coli TOP10
# Assay: shrunken log2 fold change of peptide-encoding DNA abundance (4.5 h post-induction vs induction); higher = less antimicrobial activity (less host growth inhibition)
# Conditions: time post-induction: 4.5 h; library: site-saturation at positions 5, 18, 19, 20
# 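Further: peptides expressed intracellularly from a pBAD plasmid library in pooled LB shake-flask culture, induced with 0.3% L-arabinose, DNA abundance read by NGS, three biological replicates, DESeq2 with apeglm shrinkage.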
row,Sequence,shrunken log2 fold change
1,RRIRPRPPRLPRPRPRPHGIPRP,0.0828
2,RRIRERPPRLPRPRPRPDYTPRP,-1.01
3,RRIRMRPPRLPRPRPRPCNIPRP,0.0653
4,RRIRVRPPRLPRPRPRPHQCPRP,0.00485
5,RRIRSRPPRLPRPRPRPHSSPRP,0.171
6,RRIRYRPPRLPRPRPRPCSFPRP,-0.0048
7,RRIRWRPPRLPRPRPRPMGIPRP,0.0704
8,RRIRERPPRLPRPRPRPGLTPRP,-0.174
9,RRIRKRPPRLPRPRPRPIKCPRP,-0.29
10,RRIRRRPPRLPRPRPRPYPKPRP,-0.0202
11,RRIRRRPPRLPRPRPRPQTKPRP,0.161
12,RRIRHRPPRLPRPRPRPNSAPRP,-0.0296
13,RRIRIRPPRLPRPRPRPRDRPRP,-0.0241
14,RRIRDRPPRLPRPRPRPKMHPRP,0.159
15,RRIRKRPPRLPRPRPRPQQNPRP,0.157
16,RRIRVRPPRLPRPRPRPISSPRP,-0.136
17,RRIRSRPPRLPRPRPRPPAQPRP,0.922
18,RRIRARPPRLPRPRPRPSYQPRP,-0.234
19,RRIRTRPPRLPRPRPRPGNQPRP,-0.0161
20,RRIRLRPPRLPRPRPRPIKAPRP,-0.0378
21,RRIRCRPPRLPRPRPRPSCMPRP,-0.313
22,RRIRGRPPRLPRPRPRPKGSPRP,1.03
23,RRIRARPPRLPRPRPRPEQDPRP,0.805
24,RRIRKRPPRLPRPRPRPEPFPRP,0.0238
25,RRIRSRPPRLPRPRPRPTDCPRP,-0.0926

row,Sequence,shrunken log2 fold change
1,RRIRERPPRLPRPRPRPATTPRP,-0.0752
2,RRIRSRPPRLPRPRPRPTDWPRP,0.354
3,RRIRGRPPRLPRPRPRPDCCPRP,1.34
4,RRIRQRPPRLPRPRPRPLSLPRP,-0.0321
5,RRIRSRPPRLPRPRPRPQYQPRP,-0.136
6,RRIRQRPPRLPRPRPRPCICPRP,-0.542
7,RRIRNRPPRLPRPRPRPKKLPRP,-0.0729
8,RRIRVRPPRLPRPRPRPPPNPRP,0.73
9,RRIRGRPPRLPRPRPRPGPRPRP,1.1
10,RRIRFRPPRLPRPRPRPYNLPRP,-0.322
11,RRIRMRPPRLPRPRPRPMFNPRP,-0.343
12,RRIRARPPRLPRPRPRPWTMPRP,-0.0418
13,RRIRCRPPRLPRPRPRPNRYPRP,-0.137
14,RRIRFRPPRLPRPRPRPRNIPRP,-0.313
15,RRIRARPPRLPRPRPRPHGQPRP,0.0639
16,RRIRGRPPRLPRPRPRPWYIPRP,-0.291
17,RRIRVRPPRLPRPRPRPTNPPRP,-0.296
18,RRIRVRPPRLPRPRPRPGKAPRP,-0.00584
19,RRIRSRPPRLPRPRPRPPFSPRP,-0.217
20,RRIRARPPRLPRPRPRPIFKPRP,-0.0373
21,RRIRCRPPRLPRPRPRPAPQPRP,0.829
22,RRIRPRPPRLPRPRPRPWVSPRP,0.0233
23,RRIRNRPPRLPRPRPRPRASPRP,0.211
24,RRIRLRPPRLPRPRPRPVMFPRP,-0.268
25,RRIRNRPPRLPRPRPRPWSDPRP,-0.0436

row,Sequence,shrunken log2 fold change
1,RRIRARPPRLPRPRPRPWYMPRP,-0.958
2,RRIRVRPPRLPRPRPRPHATPRP,0.204
3,RRIRVRPPRLPRPRPRPTGAPRP,0.47
4,RRIRRRPPRLPRPRPRPPCVPRP,1.02
5,RRIRIRPPRLPRPRPRPLNSPRP,-0.652
6,RRIRQRPPRLPRPRPRPMNVPRP,-0.0102
7,RRIRVRPPRLPRPRPRPGAVPRP,0.481
8,RRIRGRPPRLPRPRPRPSPHPRP,0.435
9,RRIRSRPPRLPRPRPRPGLHPRP,0.186
10,RRIRTRPPRLPRPRPRPETSPRP,0.199
11,RRIRSRPPRLPRPRPRPTSKPRP,0.0753
12,RRIRYRPPRLPRPRPRPNENPRP,-0.744
13,RRIRNRPPRLPRPRPRPVYTPRP,-0.361
14,RRIRPRPPRLPRPRPRPWSCPRP,-0.165
15,RRIRMRPPRLPRPRPRPKDGPRP,-0.0156
16,RRIRHRPPRLPRPRPRPNQFPRP,-0.789
17,RRIRYRPPRLPRPRPRPWLLPRP,-1.51
18,RRIRTRPPRLPRPRPRPQIHPRP,-0.15
19,RRIRMRPPRLPRPRPRPSTLPRP,-0.239
20,RRIRGRPPRLPRPRPRPYAFPRP,0.413
21,RRIRTRPPRLPRPRPRPNNPPRP,-0.684
22,RRIRIRPPRLPRPRPRPPDFPRP,0.189
23,RRIRTRPPRLPRPRPRPWCYPRP,-0.291
24,RRIRDRPPRLPRPRPRPIHDPRP,-0.58
25,RRIRFRPPRLPRPRPRPQVFPRP,-0.139

row,Sequence,shrunken log2 fold change
1,RRIRPRPPRLPRPRPRPFKPPRP,-0.387
2,RRIRQRPPRLPRPRPRPVNEPRP,-0.325
3,RRIRIRPPRLPRPRPRPIAQPRP,-0.373
4,RRIRRRPPRLPRPRPRPGIYPRP,0.0548
5,RRIRYRPPRLPRPRPRPHWRPRP,-0.0836
6,RRIRQRPPRLPRPRPRPPFDPRP,0.283
7,RRIRIRPPRLPRPRPRPFAYPRP,-0.396
8,RRIRTRPPRLPRPRPRPKFAPRP,0.232
9,RRIRERPPRLPRPRPRPPNGPRP,0.203
10,RRIRMRPPRLPRPRPRPCIIPRP,-0.798
11,RRIRGRPPRLPRPRPRPHCAPRP,0.606
12,RRIRHRPPRLPRPRPRPKYTPRP,0.973
13,RRIRFRPPRLPRPRPRPSLKPRP,-0.196
14,RRIRMRPPRLPRPRPRPQEIPRP,-0.00046
15,RRIRDRPPRLPRPRPRPGTQPRP,0.00934
16,RRIRCRPPRLPRPRPRPDPMPRP,0.00263
17,RRIRTRPPRLPRPRPRPRRFPRP,-0.115
18,RRIRIRPPRLPRPRPRPNIVPRP,-0.665
19,RRIRERPPRLPRPRPRPYGCPRP,-0.105
20,RRIRCRPPRLPRPRPRPAIPPRP,-0.246
21,RRIRPRPPRLPRPRPRPWCSPRP,-0.201
22,RRIRFRPPRLPRPRPRPKQPPRP,0.137
23,RRIRMRPPRLPRPRPRPMFAPRP,0.304
24,RRIRERPPRLPRPRPRPWMFPRP,0.0458
25,RRIRRRPPRLPRPRPRPGPDPRP,0.518

row,Sequence,shrunken log2 fold change
1,RRIRLRPPRLPRPRPRPILHPRP,-0.231
2,RRIRNRPPRLPRPRPRPGQYPRP,0.0262
3,RRIRDRPPRLPRPRPRPQRQPRP,0.0345
4,RRIRTRPPRLPRPRPRPLINPRP,-0.692
5,RRIRSRPPRLPRPRPRPEPLPRP,0.0528
6,RRIRARPPRLPRPRPRPIKKPRP,-0.00732
7,RRIRWRPPRLPRPRPRPKFIPRP,-0.17
8,RRIRMRPPRLPRPRPRPKKLPRP,0.354
9,RRIRLRPPRLPRPRPRPCPWPRP,-0.129
10,RRIRHRPPRLPRPRPRPEEEPRP,-0.0106
11,RRIRLRPPRLPRPRPRPGSDPRP,-0.149
12,RRIRTRPPRLPRPRPRPYNEPRP,-1.35
13,RRIRDRPPRLPRPRPRPALHPRP,0.438
14,RRIRGRPPRLPRPRPRPEMRPRP,2.35
15,RRIRIRPPRLPRPRPRPRNFPRP,-0.283
16,RRIRPRPPRLPRPRPRPHEEPRP,-0.000777
17,RRIRERPPRLPRPRPRPSKKPRP,-0.645
18,RRIRIRPPRLPRPRPRPEENPRP,-0.306
19,RRIRWRPPRLPRPRPRPQSSPRP,-0.276
20,RRIRVRPPRLPRPRPRPIIIPRP,-0.235
21,RRIRVRPPRLPRPRPRPFKCPRP,-0.0453
22,RRIRPRPPRLPRPRPRPGRPPRP,0.155
23,RRIRHRPPRLPRPRPRPNVIPRP,0.0378
24,RRIRHRPPRLPRPRPRPPIIPRP,-0.183
25,RRIRNRPPRLPRPRPRPCKHPRP,-0.344
